Data on six molecules can be found in article PMC4389316, “C-terminal residues of skeletal muscle calsequestrin are essential for calcium binding and for skeletal ryanodine receptor inhibition” (Skeletal Muscle, 2015).

Residue numbers refer to the chain shown, from its start.

Assay [1] addresses junctin. Briefly: co-immunoprecipitation (CSQ1 IP, Western blot densitometry). The settings on record: 1 mM Ca2+; parent: est. 100; read off a plot. On the technique in general: Immunoblotting shows a protein as a band on a membrane.
Assay [2] has as its target T1, skeletal triadin 95 kDa (trisk95) (rabbit (endogenous in skeletal muscle …, UniProt Q28820 1-706)).
T1 construct: triadin, skeletal muscle 95 kDa isoform, isolated from SR vesicles of New Zealand White rabbit back and leg muscle; also called triadin skeletal muscle 95 kDa; source: purified from rabbit skeletal SR vesicles (SDS preparative gel electrophoresis)
T1 sequence (looked up): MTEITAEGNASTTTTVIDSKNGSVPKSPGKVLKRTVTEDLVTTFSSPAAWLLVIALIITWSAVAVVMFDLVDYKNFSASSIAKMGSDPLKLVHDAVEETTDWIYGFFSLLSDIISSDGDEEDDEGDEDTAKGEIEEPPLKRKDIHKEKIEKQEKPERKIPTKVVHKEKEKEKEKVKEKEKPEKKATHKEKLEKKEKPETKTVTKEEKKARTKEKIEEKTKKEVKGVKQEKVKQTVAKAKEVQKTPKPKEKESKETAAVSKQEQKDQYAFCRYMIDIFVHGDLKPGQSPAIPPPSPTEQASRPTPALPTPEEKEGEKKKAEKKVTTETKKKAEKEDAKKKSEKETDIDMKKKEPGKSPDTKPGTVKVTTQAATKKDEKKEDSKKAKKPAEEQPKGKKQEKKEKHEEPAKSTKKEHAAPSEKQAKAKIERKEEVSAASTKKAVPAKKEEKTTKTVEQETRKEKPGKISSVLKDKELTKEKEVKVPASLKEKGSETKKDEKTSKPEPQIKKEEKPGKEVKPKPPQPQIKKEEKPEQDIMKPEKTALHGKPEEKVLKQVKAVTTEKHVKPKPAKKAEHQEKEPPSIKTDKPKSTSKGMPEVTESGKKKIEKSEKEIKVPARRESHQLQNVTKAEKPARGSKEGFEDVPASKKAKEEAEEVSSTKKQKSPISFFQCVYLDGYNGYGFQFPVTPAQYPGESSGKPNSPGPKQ
The assay can be described thus: co-IP; purified CSQ1 construct coupled to anti-CSQ1/protein A/G agarose (Pierce kit), then exposed to purified trisk95 or junctin; 20 mM MOPS, 150 mM NaCl, 1 mM CaCl2, pH 7.4; CSQ1 to partner 2:1 by weight; Western blot. The settings on record: both partners purified.

In assay [3] the target is ryanodine receptor type 1 (RyR1), purified (rabbit (endogenous in skeletal muscle …, UniProt P11716 1-5037)). The assay can be described thus: cell-based or functional assay.
ryanodine receptor type 1 (RyR1), purified (rabbit, sequence (P11716 whole entry): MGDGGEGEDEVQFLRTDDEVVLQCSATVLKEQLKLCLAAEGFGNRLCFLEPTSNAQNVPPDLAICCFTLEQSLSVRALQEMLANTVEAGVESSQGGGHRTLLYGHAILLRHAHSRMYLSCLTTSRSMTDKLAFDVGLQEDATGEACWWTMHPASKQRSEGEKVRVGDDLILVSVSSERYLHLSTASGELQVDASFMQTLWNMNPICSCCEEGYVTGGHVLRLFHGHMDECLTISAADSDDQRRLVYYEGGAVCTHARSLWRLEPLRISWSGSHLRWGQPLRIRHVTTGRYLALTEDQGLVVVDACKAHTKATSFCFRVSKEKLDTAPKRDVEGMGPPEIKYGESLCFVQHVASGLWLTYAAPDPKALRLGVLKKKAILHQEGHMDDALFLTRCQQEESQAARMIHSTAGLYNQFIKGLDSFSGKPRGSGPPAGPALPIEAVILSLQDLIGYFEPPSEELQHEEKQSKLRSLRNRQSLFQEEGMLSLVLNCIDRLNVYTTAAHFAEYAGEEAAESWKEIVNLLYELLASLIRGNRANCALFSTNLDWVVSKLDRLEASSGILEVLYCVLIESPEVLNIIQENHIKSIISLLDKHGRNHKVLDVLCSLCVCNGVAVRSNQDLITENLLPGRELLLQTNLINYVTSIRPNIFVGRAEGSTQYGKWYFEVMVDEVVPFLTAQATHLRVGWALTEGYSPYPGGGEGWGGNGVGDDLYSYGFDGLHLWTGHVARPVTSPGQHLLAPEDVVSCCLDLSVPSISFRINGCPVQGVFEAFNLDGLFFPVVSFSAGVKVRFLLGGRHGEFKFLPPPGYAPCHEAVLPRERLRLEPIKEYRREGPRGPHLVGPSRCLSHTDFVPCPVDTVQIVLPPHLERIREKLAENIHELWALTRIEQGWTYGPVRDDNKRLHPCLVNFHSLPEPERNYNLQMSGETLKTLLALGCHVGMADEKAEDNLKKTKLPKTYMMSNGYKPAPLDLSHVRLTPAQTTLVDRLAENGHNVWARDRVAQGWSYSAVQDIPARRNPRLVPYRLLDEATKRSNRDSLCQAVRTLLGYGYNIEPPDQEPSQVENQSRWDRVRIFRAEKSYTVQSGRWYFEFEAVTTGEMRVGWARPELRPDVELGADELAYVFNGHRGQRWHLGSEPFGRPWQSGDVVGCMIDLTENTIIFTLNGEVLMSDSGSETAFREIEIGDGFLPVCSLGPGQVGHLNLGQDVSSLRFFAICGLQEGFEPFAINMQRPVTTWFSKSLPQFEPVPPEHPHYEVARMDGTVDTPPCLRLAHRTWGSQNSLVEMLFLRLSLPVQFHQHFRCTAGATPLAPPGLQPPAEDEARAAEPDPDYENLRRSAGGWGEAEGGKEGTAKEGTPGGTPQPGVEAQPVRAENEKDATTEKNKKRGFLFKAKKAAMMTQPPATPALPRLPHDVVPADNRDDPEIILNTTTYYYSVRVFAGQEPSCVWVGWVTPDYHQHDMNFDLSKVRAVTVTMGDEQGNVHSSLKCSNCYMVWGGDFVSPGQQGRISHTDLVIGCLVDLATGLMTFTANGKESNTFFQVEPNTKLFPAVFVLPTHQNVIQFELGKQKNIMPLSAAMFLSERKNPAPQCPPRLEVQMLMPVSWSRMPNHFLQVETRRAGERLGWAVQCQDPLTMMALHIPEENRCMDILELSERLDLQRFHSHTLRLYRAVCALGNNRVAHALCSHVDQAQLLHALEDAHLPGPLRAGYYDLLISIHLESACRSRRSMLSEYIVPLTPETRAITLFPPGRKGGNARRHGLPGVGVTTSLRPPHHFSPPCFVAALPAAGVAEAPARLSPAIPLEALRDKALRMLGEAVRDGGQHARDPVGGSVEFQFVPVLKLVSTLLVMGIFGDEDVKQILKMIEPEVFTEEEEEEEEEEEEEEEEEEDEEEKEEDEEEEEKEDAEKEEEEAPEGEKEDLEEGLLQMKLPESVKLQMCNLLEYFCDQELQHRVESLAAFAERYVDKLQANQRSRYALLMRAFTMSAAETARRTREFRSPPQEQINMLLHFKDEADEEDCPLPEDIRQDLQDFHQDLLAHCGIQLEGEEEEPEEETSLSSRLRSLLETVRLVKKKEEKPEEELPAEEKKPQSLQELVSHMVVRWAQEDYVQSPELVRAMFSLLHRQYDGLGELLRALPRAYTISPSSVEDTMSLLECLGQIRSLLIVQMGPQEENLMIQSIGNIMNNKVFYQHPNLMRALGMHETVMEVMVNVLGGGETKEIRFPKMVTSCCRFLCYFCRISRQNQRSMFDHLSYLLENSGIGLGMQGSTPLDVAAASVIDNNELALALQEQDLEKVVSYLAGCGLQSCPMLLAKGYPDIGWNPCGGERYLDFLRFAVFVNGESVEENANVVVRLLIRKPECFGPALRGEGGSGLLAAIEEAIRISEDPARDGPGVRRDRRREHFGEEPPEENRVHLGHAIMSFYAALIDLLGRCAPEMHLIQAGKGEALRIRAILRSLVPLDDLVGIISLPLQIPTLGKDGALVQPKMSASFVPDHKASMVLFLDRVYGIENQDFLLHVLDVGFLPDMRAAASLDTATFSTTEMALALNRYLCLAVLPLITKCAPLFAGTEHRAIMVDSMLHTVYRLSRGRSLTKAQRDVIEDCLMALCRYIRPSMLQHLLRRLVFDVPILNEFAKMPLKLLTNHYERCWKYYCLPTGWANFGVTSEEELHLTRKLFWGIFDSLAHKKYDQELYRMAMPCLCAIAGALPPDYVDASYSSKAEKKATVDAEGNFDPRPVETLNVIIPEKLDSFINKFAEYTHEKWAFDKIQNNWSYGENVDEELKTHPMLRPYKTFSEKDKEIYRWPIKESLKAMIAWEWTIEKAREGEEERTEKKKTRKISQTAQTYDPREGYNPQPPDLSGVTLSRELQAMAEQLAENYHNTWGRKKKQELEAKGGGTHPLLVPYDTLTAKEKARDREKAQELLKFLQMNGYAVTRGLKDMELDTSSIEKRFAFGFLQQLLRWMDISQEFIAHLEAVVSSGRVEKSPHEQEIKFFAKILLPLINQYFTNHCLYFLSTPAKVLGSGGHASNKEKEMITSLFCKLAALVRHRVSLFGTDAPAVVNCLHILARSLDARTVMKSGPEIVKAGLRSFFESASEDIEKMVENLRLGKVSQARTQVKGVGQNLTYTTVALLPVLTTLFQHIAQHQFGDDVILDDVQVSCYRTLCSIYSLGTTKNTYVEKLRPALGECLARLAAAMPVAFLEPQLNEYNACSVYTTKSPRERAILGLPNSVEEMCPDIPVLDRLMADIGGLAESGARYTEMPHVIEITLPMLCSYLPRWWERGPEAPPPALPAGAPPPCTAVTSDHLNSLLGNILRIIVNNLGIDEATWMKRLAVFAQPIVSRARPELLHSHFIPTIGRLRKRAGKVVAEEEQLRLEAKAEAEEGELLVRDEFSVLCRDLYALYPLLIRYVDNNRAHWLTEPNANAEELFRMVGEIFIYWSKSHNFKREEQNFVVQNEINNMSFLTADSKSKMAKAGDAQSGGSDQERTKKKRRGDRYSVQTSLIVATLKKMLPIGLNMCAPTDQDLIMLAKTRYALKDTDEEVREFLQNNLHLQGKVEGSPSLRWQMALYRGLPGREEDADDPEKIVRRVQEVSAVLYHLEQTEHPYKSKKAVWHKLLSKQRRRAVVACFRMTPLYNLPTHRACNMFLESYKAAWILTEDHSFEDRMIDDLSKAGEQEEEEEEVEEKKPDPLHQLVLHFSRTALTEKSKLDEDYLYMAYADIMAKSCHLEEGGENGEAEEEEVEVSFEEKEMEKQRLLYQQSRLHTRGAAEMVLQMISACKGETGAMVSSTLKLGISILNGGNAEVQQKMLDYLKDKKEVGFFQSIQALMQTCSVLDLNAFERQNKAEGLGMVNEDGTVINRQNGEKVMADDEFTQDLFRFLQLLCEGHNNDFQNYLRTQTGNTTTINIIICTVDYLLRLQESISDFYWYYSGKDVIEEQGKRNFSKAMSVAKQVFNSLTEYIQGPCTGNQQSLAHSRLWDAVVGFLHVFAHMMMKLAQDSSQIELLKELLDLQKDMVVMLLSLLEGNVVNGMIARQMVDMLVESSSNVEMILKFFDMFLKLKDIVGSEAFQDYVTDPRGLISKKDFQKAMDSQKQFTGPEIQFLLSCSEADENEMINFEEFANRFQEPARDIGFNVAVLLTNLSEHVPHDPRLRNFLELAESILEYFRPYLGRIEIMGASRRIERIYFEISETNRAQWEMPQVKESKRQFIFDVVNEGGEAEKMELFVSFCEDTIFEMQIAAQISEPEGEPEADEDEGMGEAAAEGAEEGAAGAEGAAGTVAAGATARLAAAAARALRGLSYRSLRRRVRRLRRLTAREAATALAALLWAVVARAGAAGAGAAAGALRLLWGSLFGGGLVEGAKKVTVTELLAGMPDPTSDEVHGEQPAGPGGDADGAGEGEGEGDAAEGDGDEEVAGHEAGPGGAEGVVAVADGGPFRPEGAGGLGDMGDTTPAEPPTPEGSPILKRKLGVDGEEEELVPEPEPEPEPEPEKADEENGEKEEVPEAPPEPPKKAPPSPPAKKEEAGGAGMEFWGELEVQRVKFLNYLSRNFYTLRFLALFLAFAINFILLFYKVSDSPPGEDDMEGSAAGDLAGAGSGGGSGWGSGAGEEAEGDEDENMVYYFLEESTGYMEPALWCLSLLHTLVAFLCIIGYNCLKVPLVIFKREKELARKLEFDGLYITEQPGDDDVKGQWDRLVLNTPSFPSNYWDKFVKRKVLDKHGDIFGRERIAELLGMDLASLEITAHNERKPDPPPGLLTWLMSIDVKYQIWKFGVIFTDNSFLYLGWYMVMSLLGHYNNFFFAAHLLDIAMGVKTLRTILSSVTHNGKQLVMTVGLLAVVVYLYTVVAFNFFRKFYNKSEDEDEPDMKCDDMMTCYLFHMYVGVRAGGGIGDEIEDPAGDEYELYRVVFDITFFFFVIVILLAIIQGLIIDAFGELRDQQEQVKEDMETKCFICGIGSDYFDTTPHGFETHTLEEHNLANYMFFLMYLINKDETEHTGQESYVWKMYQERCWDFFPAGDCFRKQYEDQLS

With “wild-type (WT) calsequestrin type 1 (CSQ1), rabbit (from UniProt P07221) D367A”, in assay [1], the percent of parent (% relative binding) was determined as 110.

On to “wild-type (WT) calsequestrin type 1 (CSQ1), rabbit (from UniProt P07221) D365A; D367A”, for which, in assay [1], the percent of parent (% relative binding) came to 110. On the same count and under the same terms, the same measure for “wild-type (WT) calsequestrin type 1 (CSQ1), rabbit (from UniProt P07221) D363A; D365A; D367A”: 92.

B1: wild-type (WT) calsequestrin type 1 (CSQ1), rabbit (natural protein, UniProt P07221 29-395, looked up)
chain: EEGLDFPEYDGVDRVINVNAKNYKNVFKKYEVLALLYHEPPEDDKASQRQFEMEELILELAAQVLEDKGVGFGLVDSEKDAAVAKKLGLTEEDSIYVFKEDEVIEYDGEFSADTLVEFLLDVLEDPVELIEGERELQAFENIEDEIKLIGYFKNKDSEHYKAFKEAAEEFHPYIPFFATFDSKVAKKLTLKLNEIDFYEAFMEEPVTIPDKPNSEEEIVNFVEEHRRSTLRKLKPESMYETWEDDMDGIHIVAFAEEADPDGYEFLEILKSVAQDNTDNPDLSIIWIDPDDFPLLVPYWEKTFDIDLSAPQIGVVNVTDADSVWMEMDDEEDLPSAEELEDWLEDVLEGEINTEDDDDEDDDDDDDD
notes: GST was cleaved with Factor Xa for single channel and 45Ca studies; probably GST-CSQ1 on Glutathione Sepharose; the discussion calls WT 'full-length CSQ1', while the numbering (C-terminus = 367) is that of the mature protein; also called WT CSQ1; WT CSQ; source: rabbit CSQ1 cDNA in pGEX5x1, expressed as previously described [34], purified
For the molecule B1, in assay [2], the binding result is on record as “binds”. The “activation of purified RyR1 in lipid bilayers by WT CSQ1” value in assay [3] was roughly 2.8 fold.

B2: CSQ1DA3 (rabbit CSQ1 with three alternate C-terminal acidic residues changed to alanine) (natural protein, UniProt P07221 29-395, looked up)
chain: B1 chain with D363A, D365A, D367A
notes: GST state as for m1; also called CSQ1D∆3; source: rabbit CSQ1 cDNA in pGEX5x1, expressed as previously described [34], purified
On to B2, for which the binding result in assay [2] is given as “binds”.

B3: CSQ1_(∆C14) (rabbit CSQ1 lacking the whole C-terminal tail, residues 354-367) (domain or fragment, UniProt P07221 29-381, looked up)
chain: EEGLDFPEYDGVDRVINVNAKNYKNVFKKYEVLALLYHEPPEDDKASQRQFEMEELILELAAQVLEDKGVGFGLVDSEKDAAVAKKLGLTEEDSIYVFKEDEVIEYDGEFSADTLVEFLLDVLEDPVELIEGERELQAFENIEDEIKLIGYFKNKDSEHYKAFKEAAEEFHPYIPFFATFDSKVAKKLTLKLNEIDFYEAFMEEPVTIPDKPNSEEEIVNFVEEHRRSTLRKLKPESMYETWEDDMDGIHIVAFAEEADPDGYEFLEILKSVAQDNTDNPDLSIIWIDPDDFPLLVPYWEKTFDIDLSAPQIGVVNVTDADSVWMEMDDEEDLPSAEELEDWLEDVLEGEINT
Regarding B3, in assay [3], the “rise in activity (open probability) of purified RyR1 in lipid bilayers after trans addition of CSQ1∆C14” value was roughly 1.9 fold.
